Data: article PMC7319964, “The MiDAC histone deacetylase complex is essential for embryonic development and has a unique multivalent structure” (Nature Communications, 2020)

Target: the molecule itself
Test: cryo-EM structure; complex of HDAC1, MIDEAS ELM2-SANT and DNTTIP1 lacking the DNA-binding domain; 50 µM SAHA and 50 µM InsP6, glutaraldehyde cross-linked on ice; dimer map ~4 Å (C2) and tetramer map 4.5 Å (D2) from the same grids

B1: ELM2-SANT domain from MIDEAS (domain or fragment, UniProt Q6PJG2 717-887, looked up)
chain: VSIEPRINVGSRFQAEIPLMRDRALAAADPHKADLVWQPWEDLESSREKQRQVEDLLTAACSSIFPGAGTNQELALHCLHESRGDILETLNKLLLKKPLRPHNHPLATYHYTGSDQWKMAERKLFNKGIAIYKKDFFLVQKLIQTKTVAQCVEFYYTYKKQVKIGRNGTLT
notes: MIDEAS (ELMSAN1, c14orf43) ELM2-SANT domain; The tag is followed by a TEV protease cleavage site; TEV released the complex from the anti-FLAG resin; also called MIDEAS co-repressor protein; not shown: 10xHis, N-terminal, cleaved; 3xFLAG, N-terminal, cleaved
Question: Does B1 bind?
Answer: binds
